We go through three molecules from patent EP4670742A1, “ANTI-CD79B ANTIBODY DRUG CONJUGATES” (priority 2024, dated 2025).

For assay [1], the target named is T1, Human CD79b (AA 29-159)-6-His (Homo sapiens, UniProt P40259).
T1 construct: 6-His (C)
T1 sequence (P40259 29-159): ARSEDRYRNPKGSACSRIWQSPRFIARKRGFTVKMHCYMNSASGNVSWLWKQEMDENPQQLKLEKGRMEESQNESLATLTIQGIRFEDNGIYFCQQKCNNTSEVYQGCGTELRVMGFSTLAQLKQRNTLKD
Nature of the assay: Binding affinity to recombinant human CD79b (ka, kd, KD). The text has this: The binding ligand used in the assay was recombinant human CD79b having the amino acid sequence of Ala29-Asp159 of human CD79b, which was fused with a 6-His tag at the C terminus. Table 3 provides the measured association rate (ka), dissociation rate (kd), and equilibrium dissociation constant (KD). Table 3: Binding Affinity

The subject of assay [2] is DLBCL GCB CDX (OCI Ly19) Tumors. Nature of the assay: In vivo growth inhibition of xenografted tumors. From the text:
Based on an endpoint of 1000 mm3.

The target of assay [3] is T2, Human CD79b (AA 29-159)-6-His (human, UniProt P40259 29-159).
T2 construct: range 29-159; No linker between CD79b and the tag is stated
T2 sequence: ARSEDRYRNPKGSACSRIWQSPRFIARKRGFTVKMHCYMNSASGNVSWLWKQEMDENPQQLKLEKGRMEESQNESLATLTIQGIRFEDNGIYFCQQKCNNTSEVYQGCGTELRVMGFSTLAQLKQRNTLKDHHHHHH
Description: kinetic binding assay, method not named; recombinant human CD79b (29-159)-6-His.

As for Polatuzumab vedotin-piiq, the ka in assay [1] (association rate) was 1.7e+07 M⁻¹ s⁻¹. In addition, in assay [1] (dissociation rate), the kd was found to be 0.0087 s⁻¹. In addition, the dissociation constant (Kd) (in general, the constant that tells how readily two partners part at equilibrium) in assay [1] (equilibrium dissociation constant) came to 5 nM. Also, the “tumor growth inhibition and tumor growth delay” value in assay [2] (FIG. 2, compared to vehicle controls, all dose levels tested) was “statistically significant”. In addition, in assay [2] (dose 3x, control Vehicle), the “CR (%)” value is “No CRs”, the “PR (%)” value was 0% and the “TR (%)” value came to 0%. Besides, the “TGD (%)” value in assay [2] (dose 3x, control Vehicle, end of study) is 90%. In assay [2] (dose 3x, control Vehicle, listed as polatuzumab vedotin-piiq), the “CR (%)” value worked out at 0%. For the same molecule, the “TGI (%)” value in assay [2] (dose 3x, single bolus intraperitoneally on day zero, control Vehicle, day 10 post dosing) worked out at 84%.

As to Polatuzumab vedotin-piiq (antibody), in assay [3], the Kd was 5 nM; the dissociation rate constant (koff) (as a rule, a measure of how fast the partners let go of each other) was found to be 0.0087 s⁻¹; the on-rate constant (kon) (usually the second-order rate constant of association) is 1.7e+07 M⁻¹ s⁻¹.

B1: ADC-1 (antibody, human IgG1, kappa, V domains shown)
VH: EVQLVESGGGLVQPGGSLRLPCAASGFTFYNYWITWIRQAPGKGLEWVANINQAGSEKSYLDAVKGRFTISRDNAKNSVYLQMNSLRVEDTAVYYCAGGFRAFDIWGQGTMVTVSS
VL: DFVLTQSPLSLSVTPGEPASISCRSSQSLLHSSGESYLDWFLQRPGQSPQVLIYLGSHRASGAPDRFSGSGSGTDFTLKISRVEAEDVGVYYCMQALQTPLTFGGGTRVEIKR
modifications: Top1i linker drug LD1 (formula III) linked via sulfhydryl groups of cysteine residues; n is 6 for the whole antibody (DAR = 6.05); conjugated positions and split between the chains not stated
notes: Antibody drug conjugate of Ab1 (IgG1, human kappa); also called anti-CD79b Top1i ADC; anti-CD79b ADC of formula (IV) with Ab1, n is 6
B1: in assay [3], the dissociation constant (Kd) was 4 nM, the koff came to 0.00068 s⁻¹ and the kon amounted to 170000 M⁻¹ s⁻¹.
